Measured values published in the DeepSol protein solubility set.

Assay: soluble on expression in E. coli; label from the status in PepcDB or PDB records

Which “soluble on expression in E. coli” value does the source give for “HHHHHHSSGLVPRGSHMRNYCTKTFGSAFSVTVVPTLKDNFSYLINDHTTHTLAAVDVNADYKPILTYIEEHLKQQGNADVTYTFSTILSTHKHWDHSGGNAKLKAELEAMNSTVPVVVVGGANDSIPAVTKPVREGDRVQVGDLSVEVIDAPCHTRGHVLYKVQHPQHPNDGVALFTGDTMFIAGIGAFFEGDEKDMCRAMEKVYHIHKGNDYALDKVTFIFPGHEYTSGFMTFSEKTFPDRASDDLAFIQAQRAKYAAAVKTGDPSVPSSLAEEKRQNLFLRVADPAFVAKMNQGNAHALMMYLYNACD” here?
The value was “soluble”.

Which “soluble on expression in E. coli” value does the source give for “MIGKKILGERYVTVSEAAEIMYNRAQIGELSYEQGCALDYLQKFAKLDKEEAKKLVEELISLGIDEKTAVKIADILPEDLDDLRAIYYKRELPENAEEILEIVRKYI” here?
Its value is “soluble”.

Which “soluble on expression in E. coli” value does the source give for “GHMVTMSTEPVSASDKYQKISQLEHILKRPDTYIGSVETQEQLQWIYDEETDCMIEKNVTIVPGLFKIFDEILVNAADNKVRDPSMKRIDVNIHAEEHTIEVKNDGKGIPIEIHNKENIYIPEMIFGHLLTSSNYDDDEKKVTGGRNGYGAKLCNIFSTEFILETADLNVGQKYVQKWENNMSICHPPKITSYKKGPSYTKVTFKPDLTRFGMKELDNDILGVMRRRVYDINGSVRDINVYLNGKSLKIRNFKNYVELYLKSLEKKRQLDNGEDGAAKSDIPTILYERINNRWEVAFAVSDISFQQISFVNSIATTMGGTHVNYITDQIVKKISEILKKKKKKSVKSFQIKNNMFIFINCLIENPAFTSQTKEQLTTRVKDFGSRCEIPLEYINKIMKTDLATRMFEIADANEENALK” here?
The value was “soluble”.

Which “soluble on expression in E. coli” value does the source give for “MGSDKIHHHHHHMINENQHMTEREPSTRRIKSMQTASEVLRELQSQSEATLSDLCGNIDVAKSTLHTYLQTLVAEGFIDKSDGVYRLGLRFIPLGESVRNRIDLYQLGKEEVKRLAEETNEWVHLTVAYRSREVTLYEHNGGETVAVDYQRRTRESPQYLHCTATGKALLAYFDDDRVTETVATEGLVQQTEQTITDPDELREELEEIRARGYAVNDEEEIRGMRSVGAPIQDVDGTVCGAISVTAPKTRLSGDYLYNDLPELVMEAANIIEINLESAAASGE” here?
Its value is “not soluble”.

Which “soluble on expression in E. coli” value does the source give for “GERLTIEDGLYLYETSDLLGVAQLANKVNSEKNGDHVYFIENMYINPTNVCEANCSFCGFKRKPGQEGAYTMDSETLLRYVEERWNDNIREFHIVGGHNTDVPFDYYLDTIRTLKKNFPQVTVKAYTGAEIEFFSRLAGISMKEVLEELIKAGLDTLPGGGAEILTERYRAKMSPDKASTDQWLEAHEIAHGLGLKTHATMLYGSIESNEERLIHMDRVRQLQDKTNGYMVFIPLAMQPRSVKAGLKRRTSAFDDMRTIAISRLMLDNIDHIKAYWINIGVQLTQMALTFGSDDIHGTLIEERISHSVGALTSQGITRDELIHLIKSANKTPVER” here?
Its value is “not soluble”.

For “MDRKTRLSEPPTLALRLKPYKTAIQQLRSVIRALKENTTVTFLPTPSLILQTVRSHCVSKITFNSSCLYITDKSFQPKTINNSTPLLGNFMYLTSSKDLTKFYVQDISDLSAKISMCAPDFNMEFSSACVHGQDIVRESENSAVHVDLDFGVVADLLKWIGPHTRVKRNVKKAPCPTGTVQILVHAGPPAIKFILTNGSELEFTSNNRVSFHGVKNMRINVQLKNFYQTLLNCAVTKLPCTLRIVTEHDTLLYVASRNGLFAVENFLTEEPFQRGDPFDKNYVGNSGKSR”, which “soluble on expression in E. coli” value is on record?
Its value is “soluble”.

For “MAHHHHHHMVQEWWVSAAQEAVISRKATSRAERIVTEADDPRSGTSHFYDSDARLCLVCNARLEGSYSAHSHSVDHKPRVALLKRTIGMILTFLEQAGSSPSLPPPPESDSPYSLPGSKRFLVSVSTHTGTPAAPAPSCFHALYAESPLFAEDGVPSRALLYHRPCTLREFDLVDVIMRRWWNTLHNPPPRRGSISFDRLLSLSSAELQMRRWRVRYLLHFLKSRGVLRSCLTLRSDQVNAAPSPNERIHRGEAFERLEMVGDFFFKSLTPDRMHTVFPADEGGLTAELQCFERALDSNHGLLAIYDYLGLDDIVGCFLANNKAKADVVEAVIGELKVLLWSTEVVWGMEYYAVPGERATHVYLRALVAHTIAELGHTVLMWQLESTLRNCRDFLLKHTVEEYLGAEKGNERRASRGGDGCDVPADLPKYSPLPPLLAWNRRRLGVSMRRGEVPLASKQSRSSIPPSPQDPLRRLAPTASCIPEAIRDHYAVGRKKWSSYACKTAIQALCASLTQTALQHDSGHTADALSLNSSSASLPLSPEPQPSPTTPAYACVPRSVLRALVTANCVVIRNSAPPLARSTSTRRVAG”, which “soluble on expression in E. coli” value is on record?
The value was “not soluble”.

Which “soluble on expression in E. coli” value does the source give for “MLPAEREQFIITFLKTNKKATIHDLALEFNVHEATIRRDLNKLEQYNQIKRTHGGVVLNDSEVWDELNFDDRETSYYDEKVAIGLKAAEFVENGDTLFIDSGSTTIHFARALTQKSNLTIITNDIHIASILKSTANQIIVTGGILYQDNYLLNGMITNETLKLFNPSKLFLATPAIDLEKGITHFNDTLASTKIQMVKQAKAVYVLTDSSKFDKVALYNVCSSDTIDVLITDQTNKNIDWQAYDNHFKHLITVHAEAHPELEHHHHHH” here?
The value was “soluble”.

With “MHTTSSPNETLSSWDSSARREQASKNNIYVTLSAKQHPRILQIYGGAYYNPKLERLLENIVRKLTVGLQNSYKSYSLTILNTQSVNAFALPNGSIYITRGMLTLANDSSEVAAILAHEIAHITANHGILRLQKKAELKTTERISSNLLSLSGEKIHKSIENKRKLAQFSRNQELQADSIALEMLKQAGYDPFSLPRFLQSMAAYSLFRSIPGSQNAPLGFLITHPTTPQRIRLAIEKAHKISSANTGNTDRDAFLKSIDGMIFGGSPHTGFVQNNQFIHPQLGITFSVPQNFIIENSAHTVWASGPDKIAIRFDAIPHPAEISASEYLQSGWLAGLDKSSVHPFIIQGLPGAHARARNAQWQFDVVVILFNNHVLRFLTAAPHDSQNFAEIAEKTVQSFRFLSSSQLKKLKPLRIRIVRVQKGESVASLAKKMQNIPHNEKLFRILNSLSPSQALQTGAAVKIITQLEHHHHHH” as the sequence, how does the “soluble on expression in E. coli” value read?
Its value is “not soluble”.

Which “soluble on expression in E. coli” value does the source give for “MAHHHHHHMSQNKLYKTNYGYNNPILLNKNERNIKTYVNQETMTNKLLTTYNRSPLQSNYEHNIPKIIHSSTIKKQGVINENNGDKIYKPNYRDMNNLYNSKYVFSKNTPEYINGRKQMITVYDNIKNEERNKSINYYKNKNMIKIPSSYNSNNGNKIKSNNVKDGVLQLEKGSIQNVAKNMNTFHNKSNENGKFIKKLNNSNYKEVTSNVDEIRLLNKSLSAKISSSIKTNYEKSNILDHKKNTNVKVSKISIENKKYNIRKKENMKWAPKYNNNNNNNNNKDHKNMIIESVKVVKNPKEINKKKTKIVQNKYKNPLPSYICLHFHDNSLNLNNGLKIFNDMITVDKNQRMKKWNGYEWDVIEKDFHFLIKARYDNKGNIWCINKSYEVLKIMRNKLKNFGHLGKEEIIDIGFDKKNILWCINRKGQLLKWVKTKWDNIQYKGFHKLICFSFDKKGELWAINLKKELAIWNKKNKCWDEKYIKDNLKISCIDFDGDGKLWVVSNSGALLTYSKDQWINFGLVCLDELICISFKKLQE” here?
Its value is “not soluble”.

Which “soluble on expression in E. coli” value does the source give for “MNSLLFVYGTLRKHEKNHHLLAQSACINEQARTKGSLFAAKEGPTVVFNDEDEGYIYGEVYEADELCIHKLDQFFQGYHKQTVFVETDVGIKIALIYFMNKDGCAGFTKISSGDWKEHQMISKSKNPIYYFAYGSCMDNARFQKAGVDHYFQDPVGRAVLKGYTTRFTLKREDGSRADMLEDGGTTEGVLYRIPYSALSYLYKREGVESLTYRPAFVDVEAGGRHYKDCLTFLVLQKEAEIAPPQHYQIEIERGAELYLSPEFTEKLKRHMNSLPKGLEHHHHHH” here?
The value was “soluble”.

Which “soluble on expression in E. coli” value does the source give for “MSLAFVPHVPRHSRGDNPPSASTASPAVLTLTGERTIPDLDIENYWFRRHQVVYQRLAPRCTARDVLEAGCGEGYGADLIACVARQVIAVDYDETAVAHVRSRYPRVEVMQANLAELPLPDASVDVVVNFQVIEHLWDQARFVRECARVLRGSGLLMVSTPNRITFSPGRDTPINPFHTRELNADELTSLLIDAGFVDVAMCGLFHGPRLRDMDARHGGSIIDAQIMRAVAGAPWPPELAADVAAVTTADFEMVAAGHDRDIDDSLDLIAIAVREGHHHHHH” here?
Its value is “soluble”.

Which “soluble on expression in E. coli” value does the source give for “MSLKKTILCFGEALIDMLAQPLVKKGMPRAFLQCAGGAPANVAVAVARLGGAVQFVGMLGSDMFGDFLFDSFAEAGVVTDGIVRTSTAKTALAFVALDAHGERSFSFYRPPAADLLFRVEHFQDASFSDALIFHACSNSMTDADIAEVTFEGMRRAQAAGAIVSFDLNFRPMLWPNGENPASRLWKGLSLADVVKLSSEELDYLANTLAADANAVIQQLWQGRAQLLLVTDAAGPVHWYTRTAGGEVPTFRVQVQDSNAAGDAFVGGMLYTFAQQFDDAAALIDFCHDPESIVSTLRFAAAVGALAVTRQGAFTAMPMLSEVLSLIQEQSEGHHHHHH” here?
Its value is “soluble”.
